Measured values published in IntAct's records for PubMed 35512704.

B1: Speckle-type POZ protein (Homo sapiens), O43791 (parent)
chain: MSRVPSPPPPAEMSSGPVAESWCYTQIKVVKFSYMWTINNFSFCREEMGEVIKSSTFSSGANDKLKWCLRVNPKGLDEESKDYLSLYLLLVSCPKSEVRAKFKFSILNAKGEETKAMESQRAYRFVQGKDWGFKKFIRRDFLLDEANGLLPDDKLTLFCEVSVVQDSVNISGQNTMNMVKVPECRLADELGGLWENSRFTDCCLCVAGQEFQAHKAILAARSPVFSAMFEHEMEESKKNRVEINDVEPEVFKEMMCFIYTGKAPNLDKMADDLLAAADKYALERLKVMCEDALCSNLSVENAAEILILADLHSADQLKTQAVDFINYHASDVLETSGWKSMVVSHPHLVAEAYRSLASAQCPFLGPPRKRLKQS

Variants of: B1
Details: with brd4_human BRD4, O60885

| Variant | effect of a mutation on the interaction |
| --- | --- |
| F102C | disrupting interaction strength |

Variants of: B1
Details: with ncoa3_human NCOA3, Q9Y6Q9

| Variant | effect of a mutation on the interaction |
| --- | --- |
| F102C | disrupting interaction strength |

Variants of: B1
Details: with jun_human JUN

| Variant | effect of a mutation on the interaction |
| --- | --- |
| F102C | disrupting interaction strength |

Variants of: B1
Details: with akt1_human AKT1, P31749
Sequence of akt1_human AKT1, P31749 (P31749 whole entry): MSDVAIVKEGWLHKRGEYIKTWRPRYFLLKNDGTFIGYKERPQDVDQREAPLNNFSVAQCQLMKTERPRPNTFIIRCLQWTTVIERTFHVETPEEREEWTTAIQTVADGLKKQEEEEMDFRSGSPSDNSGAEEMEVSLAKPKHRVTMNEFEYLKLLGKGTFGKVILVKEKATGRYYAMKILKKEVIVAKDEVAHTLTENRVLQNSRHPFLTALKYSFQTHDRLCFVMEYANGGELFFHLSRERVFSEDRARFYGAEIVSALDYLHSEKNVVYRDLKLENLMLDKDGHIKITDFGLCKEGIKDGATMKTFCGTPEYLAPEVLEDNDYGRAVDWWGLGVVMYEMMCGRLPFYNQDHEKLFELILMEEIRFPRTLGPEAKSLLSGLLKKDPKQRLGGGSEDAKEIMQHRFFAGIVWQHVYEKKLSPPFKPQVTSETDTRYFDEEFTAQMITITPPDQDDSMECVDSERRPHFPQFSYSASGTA

| Variant | effect of a mutation on the interaction |
| --- | --- |
| F102C | with no effect |

Variants of: B1
Details: with alk_human ALK

| Variant | effect of a mutation on the interaction |
| --- | --- |
| F102C | with no effect |

Variants of: B1
Details: with aph1a_human APH1A

| Variant | effect of a mutation on the interaction |
| --- | --- |
| F102C | with no effect |

Variants of: B1
Details: with arnt_human ARNT

| Variant | effect of a mutation on the interaction |
| --- | --- |
| F102C | with no effect |

Variants of: B1
Details: with arc1a_human ARPC1A

| Variant | effect of a mutation on the interaction |
| --- | --- |
| F102C | with no effect |

Variants of: B1
Details: with bakor_human ATG14, Q6ZNE5
Sequence of bakor_human ATG14, Q6ZNE5 (Q6ZNE5 whole entry): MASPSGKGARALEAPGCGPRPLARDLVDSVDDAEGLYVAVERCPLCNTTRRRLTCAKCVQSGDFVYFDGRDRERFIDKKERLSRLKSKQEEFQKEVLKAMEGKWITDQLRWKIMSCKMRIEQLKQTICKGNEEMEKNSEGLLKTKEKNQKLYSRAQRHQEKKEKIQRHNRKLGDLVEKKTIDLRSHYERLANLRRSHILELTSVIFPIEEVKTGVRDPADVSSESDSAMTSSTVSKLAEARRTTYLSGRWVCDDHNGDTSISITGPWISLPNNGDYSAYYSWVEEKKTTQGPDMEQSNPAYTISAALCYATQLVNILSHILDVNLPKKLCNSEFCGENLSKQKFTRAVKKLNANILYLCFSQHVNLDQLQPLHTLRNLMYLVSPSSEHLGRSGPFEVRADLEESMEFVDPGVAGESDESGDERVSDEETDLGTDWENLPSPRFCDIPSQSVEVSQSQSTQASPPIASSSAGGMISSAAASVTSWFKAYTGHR

| Variant | effect of a mutation on the interaction |
| --- | --- |
| F102C | with no effect |

Variants of: B1
Details: with atm_human ATM

| Variant | effect of a mutation on the interaction |
| --- | --- |
| F102C | with no effect |

Variants of: B1
Details: with atpb_human ATP5F1B

| Variant | effect of a mutation on the interaction |
| --- | --- |
| F102C | with no effect |

Variants of: B1
Details: with aurkb_human AURKB

| Variant | effect of a mutation on the interaction |
| --- | --- |
| F102C | with no effect |

Variants of: B1
Details: with axin2_human AXIN2, Q9Y2T1

| Variant | effect of a mutation on the interaction |
| --- | --- |
| F102C | with no effect |

Variants of: B1
Details: with ufo_human AXL

| Variant | effect of a mutation on the interaction |
| --- | --- |
| F102C | with no effect |

Variants of: B1
Details: with za2g_human AZGP1, P25311
Sequence of za2g_human AZGP1, P25311 (P25311 whole entry): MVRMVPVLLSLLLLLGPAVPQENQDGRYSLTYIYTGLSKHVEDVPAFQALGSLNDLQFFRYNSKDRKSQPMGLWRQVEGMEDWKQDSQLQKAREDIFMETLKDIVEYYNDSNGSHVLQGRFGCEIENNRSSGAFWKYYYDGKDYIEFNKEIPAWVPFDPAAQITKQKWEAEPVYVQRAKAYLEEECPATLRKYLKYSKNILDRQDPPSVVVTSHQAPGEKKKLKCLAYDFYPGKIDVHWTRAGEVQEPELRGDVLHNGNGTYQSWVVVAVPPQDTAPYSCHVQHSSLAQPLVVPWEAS

| Variant | effect of a mutation on the interaction |
| --- | --- |
| F102C | with no effect |

Variants of: B1
Details: with bap1_human BAP1, Q92560

| Variant | effect of a mutation on the interaction |
| --- | --- |
| F102C | with no effect |

Variants of: B1
Details: with bard1_human BARD1, Q99728

| Variant | effect of a mutation on the interaction |
| --- | --- |
| F102C | with no effect |

Variants of: B1
Details: with bcor_human BCOR

| Variant | effect of a mutation on the interaction |
| --- | --- |
| F102C | with no effect |

Variants of: B1
Details: with birc2_human BIRC2, Q13490
Sequence of birc2_human BIRC2, Q13490 (Q13490 whole entry): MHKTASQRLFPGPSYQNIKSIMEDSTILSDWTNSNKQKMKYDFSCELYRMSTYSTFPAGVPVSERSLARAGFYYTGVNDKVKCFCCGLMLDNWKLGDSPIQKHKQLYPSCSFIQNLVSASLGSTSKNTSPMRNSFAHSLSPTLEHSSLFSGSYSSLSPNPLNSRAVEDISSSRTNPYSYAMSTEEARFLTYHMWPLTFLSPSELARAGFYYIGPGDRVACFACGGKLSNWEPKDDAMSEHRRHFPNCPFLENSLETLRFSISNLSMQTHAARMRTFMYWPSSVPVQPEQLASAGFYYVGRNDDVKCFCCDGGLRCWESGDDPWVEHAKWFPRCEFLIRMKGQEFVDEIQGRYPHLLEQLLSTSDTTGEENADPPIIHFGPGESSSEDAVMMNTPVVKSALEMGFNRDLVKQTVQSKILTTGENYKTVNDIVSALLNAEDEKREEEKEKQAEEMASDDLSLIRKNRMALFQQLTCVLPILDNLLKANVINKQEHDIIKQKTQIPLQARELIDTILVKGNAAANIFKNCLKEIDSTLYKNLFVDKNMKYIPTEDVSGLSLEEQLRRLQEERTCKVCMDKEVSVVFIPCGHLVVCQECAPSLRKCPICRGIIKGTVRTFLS

| Variant | effect of a mutation on the interaction |
| --- | --- |
| F102C | with no effect |

Variants of: B1
Details: with brd4_human BRD4, O60885
Remark: another data set of the same source

| Variant | effect of a mutation on the interaction |
| --- | --- |
| F102C | with no effect |

Variants of: B1
Details: with baba2_human BABAM2, Q9NXR7

| Variant | effect of a mutation on the interaction |
| --- | --- |
| F102C | with no effect |

Variants of: B1
Details: with btg1_human BTG1, P62324
Sequence of btg1_human BTG1, P62324 (P62324 whole entry): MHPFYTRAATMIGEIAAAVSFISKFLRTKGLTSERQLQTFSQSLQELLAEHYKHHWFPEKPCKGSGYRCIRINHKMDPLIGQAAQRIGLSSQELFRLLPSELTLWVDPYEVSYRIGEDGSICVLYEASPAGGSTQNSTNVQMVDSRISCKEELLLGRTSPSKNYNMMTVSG

| Variant | effect of a mutation on the interaction |
| --- | --- |
| F102C | with no effect |

Variants of: B1
Details: with btk_human BTK

| Variant | effect of a mutation on the interaction |
| --- | --- |
| F102C | with no effect |

Variants of: B1
Details: with ccnd1_human CCND1, P24385

| Variant | effect of a mutation on the interaction |
| --- | --- |
| F102C | with no effect |

Variants of: B1
Details: with ccnd2_human CCND2, P30279

| Variant | effect of a mutation on the interaction |
| --- | --- |
| F102C | with no effect |

Variants of: B1
Details: with ccnd3_human CCND3, P30281

| Variant | effect of a mutation on the interaction |
| --- | --- |
| F102C | with no effect |

Variants of: B1
Details: with cd44_human CD44, P16070
Sequence of cd44_human CD44, P16070 (P16070 whole entry): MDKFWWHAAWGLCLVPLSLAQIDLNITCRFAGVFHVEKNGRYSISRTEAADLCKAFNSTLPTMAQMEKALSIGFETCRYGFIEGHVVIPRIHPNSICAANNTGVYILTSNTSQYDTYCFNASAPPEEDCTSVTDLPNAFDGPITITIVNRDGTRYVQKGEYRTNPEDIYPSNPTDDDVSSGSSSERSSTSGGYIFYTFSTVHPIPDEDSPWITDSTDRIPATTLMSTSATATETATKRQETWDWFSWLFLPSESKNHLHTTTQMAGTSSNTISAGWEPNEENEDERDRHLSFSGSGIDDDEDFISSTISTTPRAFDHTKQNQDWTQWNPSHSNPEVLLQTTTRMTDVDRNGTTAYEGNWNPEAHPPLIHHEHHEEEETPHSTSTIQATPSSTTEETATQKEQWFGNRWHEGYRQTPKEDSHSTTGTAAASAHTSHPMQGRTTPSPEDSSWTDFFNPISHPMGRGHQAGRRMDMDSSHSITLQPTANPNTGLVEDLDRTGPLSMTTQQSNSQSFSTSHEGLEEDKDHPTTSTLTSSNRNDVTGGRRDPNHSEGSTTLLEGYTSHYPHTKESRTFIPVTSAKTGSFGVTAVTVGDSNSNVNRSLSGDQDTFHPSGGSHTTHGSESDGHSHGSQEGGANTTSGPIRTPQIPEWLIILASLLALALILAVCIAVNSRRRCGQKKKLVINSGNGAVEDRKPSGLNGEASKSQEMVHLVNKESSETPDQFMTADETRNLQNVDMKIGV

| Variant | effect of a mutation on the interaction |
| --- | --- |
| F102C | with no effect |

Variants of: B1
Details: with cd79b_human CD79B

| Variant | effect of a mutation on the interaction |
| --- | --- |
| F102C | with no effect |

Variants of: B1
Details: with cdc27_human CDC27, P30260
Sequence of cdc27_human CDC27, P30260 (P30260 whole entry): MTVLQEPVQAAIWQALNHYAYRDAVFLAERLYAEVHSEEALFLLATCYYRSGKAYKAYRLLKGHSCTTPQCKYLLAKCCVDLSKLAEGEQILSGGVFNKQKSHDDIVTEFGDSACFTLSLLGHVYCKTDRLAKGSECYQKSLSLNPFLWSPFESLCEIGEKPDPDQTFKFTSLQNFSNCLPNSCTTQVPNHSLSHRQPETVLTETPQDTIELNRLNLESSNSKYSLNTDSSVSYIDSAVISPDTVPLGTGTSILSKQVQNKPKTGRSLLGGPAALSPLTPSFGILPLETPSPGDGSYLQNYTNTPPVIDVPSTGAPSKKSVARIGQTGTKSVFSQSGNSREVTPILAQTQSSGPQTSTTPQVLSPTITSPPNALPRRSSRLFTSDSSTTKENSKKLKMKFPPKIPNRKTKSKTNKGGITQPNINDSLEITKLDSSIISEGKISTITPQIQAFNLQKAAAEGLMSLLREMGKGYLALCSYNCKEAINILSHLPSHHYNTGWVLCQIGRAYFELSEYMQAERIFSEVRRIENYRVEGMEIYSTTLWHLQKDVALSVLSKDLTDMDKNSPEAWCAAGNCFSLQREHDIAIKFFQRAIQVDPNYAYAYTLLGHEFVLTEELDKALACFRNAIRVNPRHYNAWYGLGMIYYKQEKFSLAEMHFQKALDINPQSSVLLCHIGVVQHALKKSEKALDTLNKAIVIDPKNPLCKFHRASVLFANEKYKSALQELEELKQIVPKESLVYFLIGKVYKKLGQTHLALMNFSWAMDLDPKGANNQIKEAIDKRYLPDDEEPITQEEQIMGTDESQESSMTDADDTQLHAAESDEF

| Variant | effect of a mutation on the interaction |
| --- | --- |
| F102C | with no effect |

Variants of: B1
Details: with cdc73_human CDC73, Q6P1J9

| Variant | effect of a mutation on the interaction |
| --- | --- |
| F102C | with no effect |

Variants of: B1
Details: with cdk4_human CDK4, P11802

| Variant | effect of a mutation on the interaction |
| --- | --- |
| F102C | with no effect |

Variants of: B1
Details: with cdk6_human CDK6, Q00534
Sequence of cdk6_human CDK6, Q00534 (Q00534 whole entry): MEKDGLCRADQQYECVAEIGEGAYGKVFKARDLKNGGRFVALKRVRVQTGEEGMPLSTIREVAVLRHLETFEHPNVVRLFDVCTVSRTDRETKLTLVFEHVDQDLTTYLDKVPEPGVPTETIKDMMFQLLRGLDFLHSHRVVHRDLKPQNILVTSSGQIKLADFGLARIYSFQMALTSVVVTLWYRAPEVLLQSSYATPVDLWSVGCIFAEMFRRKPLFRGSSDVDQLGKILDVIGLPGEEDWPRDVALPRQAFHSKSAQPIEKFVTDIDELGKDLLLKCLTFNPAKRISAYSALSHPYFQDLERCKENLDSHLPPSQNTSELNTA

| Variant | effect of a mutation on the interaction |
| --- | --- |
| F102C | with no effect |

Variants of: B1
Details: with cdn2c_human CDKN2C

| Variant | effect of a mutation on the interaction |
| --- | --- |
| F102C | with no effect |

Variants of: B1
Details: with chd1l_human CHD1L

| Variant | effect of a mutation on the interaction |
| --- | --- |
| F102C | with no effect |

Variants of: B1
Details: with chd2_human CHD2, O14647

| Variant | effect of a mutation on the interaction |
| --- | --- |
| F102C | with no effect |

Variants of: B1
Details: with ch3l1_human CHI3L1, P36222

| Variant | effect of a mutation on the interaction |
| --- | --- |
| F102C | with no effect |

Variants of: B1
Details: with ctla4_human CTLA4, P16410

| Variant | effect of a mutation on the interaction |
| --- | --- |
| F102C | with no effect |

Variants of: B1
Details: with cul3_human CUL3, Q13618
Sequence of cul3_human CUL3, Q13618 (Q13618 whole entry): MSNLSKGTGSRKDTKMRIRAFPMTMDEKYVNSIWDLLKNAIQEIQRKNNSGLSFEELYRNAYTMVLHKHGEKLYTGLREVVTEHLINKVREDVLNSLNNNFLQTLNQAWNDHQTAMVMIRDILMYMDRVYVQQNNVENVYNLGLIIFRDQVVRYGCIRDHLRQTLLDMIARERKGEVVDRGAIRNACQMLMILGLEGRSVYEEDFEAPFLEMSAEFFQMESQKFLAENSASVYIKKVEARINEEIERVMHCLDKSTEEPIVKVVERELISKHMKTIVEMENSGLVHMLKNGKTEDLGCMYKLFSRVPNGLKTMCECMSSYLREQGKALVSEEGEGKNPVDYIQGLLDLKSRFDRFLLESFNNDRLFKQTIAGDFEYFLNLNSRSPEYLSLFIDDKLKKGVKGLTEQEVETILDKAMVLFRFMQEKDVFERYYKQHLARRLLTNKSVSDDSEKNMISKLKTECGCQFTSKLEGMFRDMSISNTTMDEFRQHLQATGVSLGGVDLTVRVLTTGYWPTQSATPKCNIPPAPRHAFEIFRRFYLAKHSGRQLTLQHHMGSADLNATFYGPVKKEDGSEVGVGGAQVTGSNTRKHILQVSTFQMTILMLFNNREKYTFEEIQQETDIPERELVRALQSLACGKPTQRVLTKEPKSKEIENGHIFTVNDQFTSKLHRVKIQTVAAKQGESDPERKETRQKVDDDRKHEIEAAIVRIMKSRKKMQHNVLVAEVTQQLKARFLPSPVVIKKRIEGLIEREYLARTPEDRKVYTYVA

| Variant | effect of a mutation on the interaction |
| --- | --- |
| F102C | with no effect |

Variants of: B1
Details: with cul4b_human CUL4B

| Variant | effect of a mutation on the interaction |
| --- | --- |
| F102C | with no effect |

Variants of: B1
Details: with daxx_human DAXX

| Variant | effect of a mutation on the interaction |
| --- | --- |
| F102C | with no effect |

Variants of: B1
Details: with ddx5_human DDX5, P17844

| Variant | effect of a mutation on the interaction |
| --- | --- |
| F102C | with no effect |
